Data: US20230338553A1 (TECHNISCHE UNIVERSIT T DRESDEN, published 2023)

T1: Prostate Stem Cell Antigen (PSCA) (human, UniProt O43653 12-83)
T1 construct: whole, on cells
T1 sequence (looked up): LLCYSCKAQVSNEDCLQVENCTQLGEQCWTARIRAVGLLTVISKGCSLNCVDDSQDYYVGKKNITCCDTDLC


Key:
[1] = target: T2, Epidermal Growth Factor Receptor variant III (EGFRvIII) (UniProt P00533 25-1210); experiment: flow cytometry on 293T^EGFRvIII cells, anti-myc and anti-biotin detection
T2 construct: whole, on cells
Experimental: The bound antibodies were detected either via their myc-epitope using anti-myc/FITC antibody or via their biotin residue using anti-biotin/PE antibody (1:10; Miltenyi Biotec, Bergisch Gladbach, Germany). Cells stained only with secondary antibody were included as a control. […] At least 10,000 stained cells were measured by flow cytometry (MACSQuant, Miltenyi Biotec, Bergisch Gladbach, Germany) and analyzed by FlowJo software version 7.6.5 (TreeStar Inc., Ashland, USA).
In this case the AM1-antibodies served as negative controls. Binding of scFvs and of scFv-P-BAPs was visualized with secondary anti-myc-PE (grey histograms in upper and middle graphs). […] Open histograms represent control staining only using secondary antibodies or an IgG-PE isotype control. […] Recombinant proteins were separated using SDS-PAGE, with parental single chain antibodies serving as controls. Blots were subsequently stripped and re-probed with biotin antibodies.

[2] = target: T1, Prostate Stem Cell Antigen (PSCA); experiment: flow cytometry titration on 293T^PSCA cells, anti-myc-PE detection (Example 7, FIG. 9)
Experimental: After detection with a secondary anti-myc-PE-antibody the MFIs were determined using a MACSQuant Cytometer (Miltenyi Biotech) and FlowJo software and the Kd values were calculated with the PRISM software program. FIG. 9 depicts the graphs for the KD value calculations.

fold better affinity (KD value) than the parental murine scFv(AM1) [2] | Binder | binding result [1]
– | scFv(MR1.1)-P-BAP (scFv, mono-biotinylated at the C-terminal P-BAP (PSTCD biotin acceptor domain), EGFRvIII-specific scFv fused to P-BAP) scFv: DAAQPARRARRTKLGTELGSHMQVKLQQSGGGLVKPGASLKLSCVTSGFTFRKFGMSWVRQTSDKRLEWVASISTGGYNTYYSDNVKGRFTISRENAKNTLYLQMSSLKSEDTALYYCTRGYSPYSYAMDYWGQGTTVTVSSSGGGSGGGGSGGGGSDIELTQSPASLSVATGEKATIRCMTSTDIDDDMNWYQQKPGEPPKFLISEGNTLRPGVPSRFSSSGTGTDFVFTIENTLSEDVGDYYCLQSWNVPLTFGDGTKLEITKLSSKLKVTVNGTAYDVDVDVDKSHENPMGTILFGGGTGGAPAPAAGGAGAGKAGEGEIPAPLAGTVSKILVKEGDTVKAGQTVLVLEAMKMETEINAPTDGKVEKVLVKERDAVQGGQGLIKIGDLELIEGSSGPEQKLISEEDLNSAVDHHHHHH | binds
100 fold | scFv(h-AM1)-BAP (scFv, mono-biotinylated at the C-terminal BAP (Bio-Tag), Fully humanized PSCA-specific scFv with N-terminal Ig kappa leader in the construct and C-terminal c-Myc tag, Bio-Tag and His6; also called humanized scFv(h-AM1)) scFv: DAAQPARRARRTKLGTELGSEVQLLESGGGLVQPGGSLRLSCVASGFTFSSYTMSWVRQAPGKGLEWVSYIHNGGGHTYYADSVKGRFTISRDNSKNTLYLQMNSLRAEDTAVYYCTRRMYYGNSHWYFDVWGAGTRVTITSAKTTPPSVYGGGGSGGGGSGGGGSTNSDIQMTQSPSSLSASVGDRVTITCRTSQSISNYLNWYQQKPGKAPKLLIYYTLKLNSGVPSRFSGSGSGTDFTLTISSLQPEDFATYYCQQSKTLPWTFGGGTKLEIKRADAAPTVSGPEQKLISEEDLNSAVDMSGLNDIFEAQKIEWHEGAPSSHHHHHH | –
– | scFv(AM1)-P-BAP (scFv, mono-biotinylated at the C-terminal P-BAP (PSTCD biotin acceptor domain) when produced in 293T-huBirA cells, PSCA-specific murine scFv derived from 7F5, fused to P-BAP, with myc tag and His6; also called murine scFv(AM1)-BAP) scFv: DAAQPARRARRTKLGTELGSQVKLQESGGGLVQPGGSLKLSCVASGFTFSSYTMSWVRRTPEKRLEWVAYIHNGGGHTYYPDTIKGRFTISRDNAKNTLFLEMSSLKSEDTAMYYCTRRMYYGNSHWYFDVWGAGTSVTVSSAKTTPPSVYGGGGSGGGGSGGGGSTNSDIVMTQSPSSLSASLGDRVTINCRTSQDISNYLNWYQLTPDGTVKLLIYYTLKLNSGVPSRFSGSGSGTDYSLTINNLEKEDFATYFCQQSKTLPWTFGGGTKLEIKRADAAPTVSGPKLSSKLKVTVNGTAYDVDVDVDKSHENPMGTILFGGGTGGAPAPAAGGAGAGKAGEGEIPAPLAGTVSKILVKEGDTVKAGQTVLVLEAMKMETEINAPTDGKVEKVLVKERDAVQGGQGLIKIGDLELIEGSSGPEQKLISEEDLNSAVDHHHHHH | no binding (tested: 1 µg scFv on 2×10^5 cells)
